Molecular target: 5,6-TAMRA-labeled short BMAL1 TAD (residues 594-626), wild type (mouse)
Assay: fluorescence polarisation

Chain of mouse CRY1 photolyase homology region (PHR, residues 1-491) (P97784 1-491): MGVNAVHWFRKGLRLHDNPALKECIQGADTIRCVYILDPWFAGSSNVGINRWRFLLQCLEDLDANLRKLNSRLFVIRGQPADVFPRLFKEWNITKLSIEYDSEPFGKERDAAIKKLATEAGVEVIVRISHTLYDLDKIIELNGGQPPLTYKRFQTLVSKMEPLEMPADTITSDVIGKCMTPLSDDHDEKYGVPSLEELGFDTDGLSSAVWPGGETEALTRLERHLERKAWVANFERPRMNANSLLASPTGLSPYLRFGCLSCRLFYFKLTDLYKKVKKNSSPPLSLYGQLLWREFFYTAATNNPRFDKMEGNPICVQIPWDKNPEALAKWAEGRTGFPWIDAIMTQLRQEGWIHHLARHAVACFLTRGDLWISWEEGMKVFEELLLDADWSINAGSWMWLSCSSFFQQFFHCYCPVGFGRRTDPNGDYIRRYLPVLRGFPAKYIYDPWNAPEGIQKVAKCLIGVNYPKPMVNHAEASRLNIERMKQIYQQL

In the case of “mouse CRY1 photolyase homology region (PHR, residues 1-491) (from UniProt P97784 1-491) (domain or fragment)”, the Kd is reported as 900 nM.

From PMC5484534
